Results from patent US8709981B2, “Isolated Australian coral reef fluorescent proteins and cell-based kinase or phosphatase platforms for cancer drug development” (priority 2009, dated 2014).

B1: PhosFluor: fluorescent protein having the amino acid sequence set forth in SEQ ID NO: 10, isolated from Scleractinia (protein)
chain: MSAHIKPNMKIKLRMEGDVNGHPFVITGEGSGKPYEGTHAIDLKVKEGGPLPFAYDILTAAFQYGNRAFTKYPADIPDYFKQSFPDGYCWERSMVFEDQGICVVKSVISLDKKEPDCFNYDIRFYGVNFPATGPVMKKKTVKWEPSTQTMYERDGVLVGDVNMALLLEGGGHHRCDFKSTYRAKGVVLNMPGNHYVDHRIEIIHHDKGYNSVTVHESAEARHCSLPSKAK
modifications: Scleractinia sp
B2: SEQ ID NO: 24: disclosed fluorescent polypeptide having the amino acid sequence set forth in SEQ ID NO: 24 (protein, listed as Lobophyllia hemprichii)
chain: MNVIKTDMKMKLRMVGAVNGHKFEIAGEGKGKPFEGKQTMNLEVLVGGPLPFAFDILTTVFDYGNRVFVKYPRDIADYFKQSFPEGFSWERSMAYEDGGICLATNNITLMKGDCFLYEIRFDGVNFPANSPVLQKKTV

Legend:
alkaline phosphatase = settings: incubated with alkaline phosphatase
Method: (§3) B. Equal quantities of the recombinant PhosFluor or eGFP were subjected to phosphorylation by the indicated protein kinases or to dephosphorylation with alkaline phosphatase (Alk Phos). Fluorescence intensity (representing the change in emission of a part of the emission spectrum compared to the value at 0 hours) was measured over time during the reaction.
(§4) To determine if the fluorescence of PhosFluor could be modulated by phosphorylation, recombinant PhosFluor was incubated with different protein kinases and fluorescence was monitored (FIG. 9B).

[1] = tested on: protein kinases (PKA, PKC, Akt1, CamKII, MAPK); experiment: Excitation and emission spectra after phosphorylation; type: biochemical
Source text: FIG. 11 discloses that phosphorylation of PhosFluor alters its spectral properties. The excitation and emission spectra of PhosFluor and eGFP are depicted under control conditions (no kinase) and after phosphorylation by the indicated kinases. The excitation and emission spectra for eGFP are all superimposed under a single curve, while phosphorylation of PhosFluor alters both spectra compared to control conditions.
The excitation and emission spectra of PhosFluor were also obtained under control conditions and when phosphorylated (FIG. 10A). […] A marked shift in the emission spectrum of PhosFluor was observed when this molecule was incubated with PKA, PKC or Akt1 (FIG. 10B). […] These observations are highly significant because changes in the emission spectrum permits ratiometric measurements to be carried out, a highly robust method for quantitating spectral change in a fluorophore. Moreover, the effects reported here were carried out on the unmodified native PhosFluor protein. Enhanced effects would be expected if this protein is optimized for phosphorylation and/or expression as disclosed herein.

[2] = Fluorescence intensity at different pH (Tris buffer); type: physicochemical; settings: from pH 6.3 to pH 8.5
Source text: A panel of fluorescent proteins was subjected to different pH conditions.

[3] = tested on: PKA, PKC, MAPK, cdc2, Akt1, Src; experiment: Western blot / SDS-PAGE analysis of phosphorylation; type: biochemical
Method: Equal quantities of PhosFluor or eGFP incubated with either PKC or Src for the indicated times (in hours) were resolved on 10% SDS-PAGE gels and immunoblotted to antibodies that reveal total protein (a polyhistidine monoclonal antibody) or phospho-tyrosine. M designates the position of the monomeric form of fluorescent protein while P designates the position of phosphorylated forms of the protein that have undergone a motility shift due to increased negative charge.
Phosphorylation is known to increase the negative charge on proteins, which commonly results in an upward shift in the apparent molecular weight of the protein when resolved by SDS-PAGE (sodium dodecyl sulfate-polyacrylamide gel electrophoresis).

protein kinases = experiment: Fluorescence intensity of recombinant protein incubated with protein kinases; type: biochemical
Method: as §3, §4

[4] = Fluorescence emission spectrum compared to eGFP; type: physicochemical; settings: samples normalized by absorption at 480 nm
Source text: (§1) The fluorescence emission of a disclosed fluorescent polypeptide having the amino acid sequence set forth in SEQ ID NO: 24 was compared to eGFP. eGFP is one of the brightest fluorescent proteins created to date. Both the disclosed fluorescent polypeptide having the amino acid sequence set forth in SEQ ID NO: 24 and eGFP were cloned into a modified pET-HT vector with a TEV-cleavable His-tag, expressed in BL21-DE3 E. coli, and purified via Ni-NTA resin. The concentration of each sample was normalized by the intensity of the respective absorption spectrum at 480 nm.
(§2) Fluorescence correlation spectroscopy (FCS) measurements (not shown) also indicated the protein having the sequence set forth in SEQ ID NO: 24 is monomeric and about 1.4 times as bright as eGFP. Additionally, as FIG. 6 clearly indicates, the peak emission intensity of the disclosed fluorescent polypeptide having the amino acid sequence set forth in SEQ ID NO: 24 is about 50% greater than that of eGFP.

[5] = Fluorescence correlation spectroscopy (FCS) compared to eGFP; type: physicochemical
Source text: as §1, §2

| Molecule | increase in fluorescence intensity over time with alkaline phosphatase (alkaline phosphatase) | excitation spectrum upon phosphorylation ([1]; different protein kinases, including Akt1) | emission spectrum upon phosphorylation ([1]; incubated with PKA, PKC or Akt1) | increase in brightness [2] | SDS-PAGE mobility shift upon phosphorylation by PKC ([3]; PKC) | substrate for PKC and Src ([3]; PKC or Src, immunoblot) | phosphorylation of serine and threonine sites ([3]; Western blot, by PKA, PKC, MAPK, cdc2 and Akt1) | fluorescence intensity when incubated with cdc2 and MAPK (protein kinases; cdc2 and MAPK, data not shown) | fluorescence intensity in the absence of added protein kinase (protein kinases; no added protein kinase) | fluorescence intensity when treated with various protein kinases (protein kinases; recombinant protein incubated with kinases) | peak emission intensity greater than that of eGFP [4] | oligomeric state [5] | brightness relative to eGFP ([5]; as bright as eGFP) |
| --- | --- | --- | --- | --- | --- | --- | --- | --- | --- | --- | --- | --- | --- |
| B1 | virtually abolished the increase in fluorescence intensity | dramatically altered | marked shift | > 100% | multiple higher molecular weight species | avid substrate | phosphorylated | increased above background levels | increased to a lesser degree | dramatic increase in fluorescence intensity |  |  |  |
| B2 |  |  |  |  |  |  |  |  |  |  | about 50% | monomeric | about 1.4 times |
